Measurements published in the supplement of paper PMC11811203.

B1: THAP1; numbered along this chain (parent)
chain: MVQSCSAYGCKNRYDKDKPVSFHKFPLTRPSLCKEWEAAVRRKNFKPTKYSSICSEHFTPDCFKRECNNKLLKENAVPTIFLCTEPHDKKEDLLEPQEQLPPPPLPPPVSQVDAAIGLLMPPLQTPVNLSVFCDHNYTVEDTMHQRKRIHQLEQQVEKLRKKLKTAQQRCRRQERQLEKLKEVVHFQKEKDDVSERGYVILPNDYFEIVEVPA

Variants of: B1
Assay: THAP1 transcriptional activity (GFP+/GFP- enrichment relative to wild-type constructs) (ratio to WT); higher = more THAP1 activity (PSMB5 reporter activation)
Settings: with PSMB5 promoter-GFP reporter
In short: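 Activity values are replicate-mean bright/dim read fold changes divided by the mean of wild-type synonymous constructs. They come from a human THAP1 site-saturation library (residues 2–213, each changed to all 20 amino acids) delivered by lentivirus at MOI ~0.3, in duplicate, into THAP1-knockout HEK-293T cells with mClover3 at endogenous PSMB5. BFP+ cells were sorted into GFP-dim and GFP-bright bins after five days, and variants were counted by Illumina sequencing of genomic DNA amplicons.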

First: V183T
Second: V183Q
The THAP1 transcriptional activity of the first is lower: 1.02 for the first, 1.52 for the second.

First: R196D
Second: R196Y
The THAP1 transcriptional activity of the first is lower: 0.823 for the first, 1.11 for the second.

Compared with E189V, E189K is higher in THAP1 transcriptional activity: 0.53 for the first, 1.1 for the second.

First: P26D
Second: P26G
The THAP1 transcriptional activity of the first is lower: 0.0858 for the first, 0.0891 for the second.

Compared with T79L, T79V is lower in THAP1 transcriptional activity: 0.628 for the first, 0.326 for the second.

First: T79A
Second: V131S
The THAP1 transcriptional activity of the first is higher: 0.438 for the first, 0.28 for the second.

Going from V131G to A38I, the THAP1 transcriptional activity rises from 0.244 to 0.735.

Compared with E98L, E98K is higher in THAP1 transcriptional activity: 0.875 for the first, 1.43 for the second.

Compared with E35W, E35Q is higher in THAP1 transcriptional activity: 0.203 for the first, 1.42 for the second.

Compared with V112L, V112S is higher in THAP1 transcriptional activity: 0.629 for the first, 1.12 for the second.

Going from C170M to C170A, the THAP1 transcriptional activity falls from 0.824 to 0.663.

First: S51W
Second: S51E
The THAP1 transcriptional activity of the first is lower: 0.122 for the first, 0.185 for the second.

Compared with S51Y, N136G is higher in THAP1 transcriptional activity: 0.0754 for the first, 0.109 for the second.

Compared with N136T, N136P is lower in THAP1 transcriptional activity: 0.311 for the first, 0.263 for the second.

First: N136L
Second: E182K
The THAP1 transcriptional activity of the first is lower: 0.102 for the first, 1.56 for the second.

Compared with N128F, N128T is higher in THAP1 transcriptional activity: 0.259 for the first, 0.494 for the second.

Compared with R160W, H57M is lower in THAP1 transcriptional activity: 0.309 for the first, 0.138 for the second.

Compared with H57W, L100A is higher in THAP1 transcriptional activity: 0.0852 for the first, 1.25 for the second.

Compared with P103L, P103R is lower in THAP1 transcriptional activity: 1.61 for the first, 1.56 for the second.

Compared with P103N, V109D is higher in THAP1 transcriptional activity: 0.938 for the first, 2.07 for the second.

Going from P78I to L93A, the THAP1 transcriptional activity rises from 0.211 to 1.26.

Going from L93D to L93I, the THAP1 transcriptional activity rises from 1.14 to 1.37.

Going from T84Q to T84M, the THAP1 transcriptional activity falls from 1.65 to 1.23.

First: T84S
Second: W36Q
The THAP1 transcriptional activity of the first is higher: 0.852 for the first, 0.18 for the second.

Going from G197E to P212Q, the THAP1 transcriptional activity rises from 1 to 1.45.

Going from D61G to L27A, the THAP1 transcriptional activity falls from 0.219 to 0.142.

First: C67S
Second: C67A
The THAP1 transcriptional activity of the first is higher: 0.964 for the first, 0.639 for the second.

Compared with Q155C, E140C is higher in THAP1 transcriptional activity: 0.531 for the first, 0.908 for the second.

Compared with E140N, E140W is lower in THAP1 transcriptional activity: 1.33 for the first, 1.1 for the second.

First: I149R
Second: S130R
The THAP1 transcriptional activity of the first is lower: 0.245 for the first, 0.271 for the second.

First: S130Y
Second: S130I
The THAP1 transcriptional activity of the first is lower: 0.1 for the first, 0.104 for the second.

First: N68C
Second: V184H
The THAP1 transcriptional activity of the first is lower: 0.157 for the first, 0.994 for the second.

Compared with V184W, V184Q is higher in THAP1 transcriptional activity: 0.59 for the first, 1.09 for the second.

Going from C5K to C5M, the THAP1 transcriptional activity rises from 0.167 to 0.18.

Compared with C5T, S4Y is lower in THAP1 transcriptional activity: 0.162 for the first, 0.123 for the second.

Going from K16L to K16R, the THAP1 transcriptional activity rises from 0.129 to 0.661.

Going from K16G to L129D, the THAP1 transcriptional activity rises from 0.17 to 0.405.

Compared with L129H, L129I is higher in THAP1 transcriptional activity: 1 for the first, 1.12 for the second.

Going from L129K to T138D, the THAP1 transcriptional activity falls from 1.95 to 0.306.

Going from S52T to T142M, the THAP1 transcriptional activity falls from 1.41 to 0.188.

Going from T142L to R175C, the THAP1 transcriptional activity falls from 0.587 to 0.503.

Compared with R175E, Y14G is lower in THAP1 transcriptional activity: 0.554 for the first, 0.085 for the second.

Going from Y14N to Y14V, the THAP1 transcriptional activity falls from 0.165 to 0.151.

Going from Y14A to R13D, the THAP1 transcriptional activity falls from 0.211 to 0.115.

Going from R13V to F22P, the THAP1 transcriptional activity falls from 0.185 to 0.132.

Going from F22N to K49M, the THAP1 transcriptional activity rises from 0.0832 to 0.232.

Going from K49S to K162M, the THAP1 transcriptional activity rises from 0.261 to 0.318.

Compared with K162F, K162D is higher in THAP1 transcriptional activity: 0.177 for the first, 0.27 for the second.

First: K162A
Second: K162S
The THAP1 transcriptional activity of the first is lower: 0.4 for the first, 0.461 for the second.

Going from D134K to D134S, the THAP1 transcriptional activity rises from 0.141 to 0.277.

Going from F132H to F132M, the THAP1 transcriptional activity rises from 1.03 to 1.06.

Going from D17V to D17T, the THAP1 transcriptional activity rises from 0.314 to 1.49.

First: C10K
Second: K179H
The THAP1 transcriptional activity of the first is lower: 0.156 for the first, 0.616 for the second.

First: D88T
Second: D88Y
The THAP1 transcriptional activity of the first is lower: 0.582 for the first, 0.858 for the second.

Going from D88N to D88W, the THAP1 transcriptional activity rises from 0.665 to 0.937.

First: A115Q
Second: F186S
The THAP1 transcriptional activity of the first is lower: 0.738 for the first, 1.93 for the second.

Going from F186D to K64P, the THAP1 transcriptional activity falls from 1.4 to 0.104.

Going from L82M to L82E, the THAP1 transcriptional activity rises from 0.668 to 1.33.

Compared with T165R, Y205G is higher in THAP1 transcriptional activity: 0.898 for the first, 1.84 for the second.

Compared with Y205D, S21Q is lower in THAP1 transcriptional activity: 0.754 for the first, 0.176 for the second.

First: T59P
Second: T125L
The THAP1 transcriptional activity of the first is lower: 0.248 for the first, 0.291 for the second.

Compared with T125K, Q97V is lower in THAP1 transcriptional activity: 1.4 for the first, 0.752 for the second.

Compared with H87F, H87N is higher in THAP1 transcriptional activity: 2.09 for the first, 2.68 for the second.

Going from R29G to R29K, the THAP1 transcriptional activity rises from 0.131 to 0.357.

Compared with D191S, K190F is lower in THAP1 transcriptional activity: 1.21 for the first, 0.86 for the second.

Compared with H144R, H144A is higher in THAP1 transcriptional activity: 0.709 for the first, 1.5 for the second.

First: F206V
Second: Q3F
The THAP1 transcriptional activity of the first is higher: 1.41 for the first, 0.143 for the second.

Compared with Q3V, H185Y is higher in THAP1 transcriptional activity: 0.563 for the first, 0.905 for the second.

Compared with H185L, H185A is higher in THAP1 transcriptional activity: 0.359 for the first, 1.58 for the second.

Going from S31M to S31V, the THAP1 transcriptional activity rises from 0.6 to 0.895.

Compared with P106N, R169D is lower in THAP1 transcriptional activity: 1.89 for the first, 0.239 for the second.

Compared with P202N, P202L is higher in THAP1 transcriptional activity: 0.854 for the first, 0.884 for the second.

Going from P202F to L71G, the THAP1 transcriptional activity falls from 0.497 to 0.187.

Going from L71M to L71V, the THAP1 transcriptional activity rises from 0.941 to 1.47.

Going from Q111G to Q111A, the THAP1 transcriptional activity rises from 0.565 to 0.608.

Going from K34C to K34E, the THAP1 transcriptional activity rises from 0.284 to 0.59.

Going from K34M to K161M, the THAP1 transcriptional activity rises from 0.397 to 0.518.

Compared with I53R, C54D is higher in THAP1 transcriptional activity: 0.0647 for the first, 0.178 for the second.

Going from E95N to F45E, the THAP1 transcriptional activity falls from 1.31 to 0.0902.

Compared with E157G, E157P is lower in THAP1 transcriptional activity: 0.865 for the first, 0.228 for the second.

Compared with E207D, L152I is lower in THAP1 transcriptional activity: 0.615 for the first, 0.29 for the second.

Going from E178I to N44A, the THAP1 transcriptional activity falls from 0.832 to 0.194.

Compared with N44M, N44C is higher in THAP1 transcriptional activity: 0.177 for the first, 0.476 for the second.

With R41T the THAP1 transcriptional activity was 0.171.
